Blank lines part the entries; values can stand above or below the substance they belong to.
Assays:
[1] = target: D3H44 Fab heavy chain Q179R, ABD2-His6 tagged; experiment: LCCA, SPR of light chain tags; L1:L2 DNA 1:9 normalized to 1:1; competing light chain m16
[2] = target: D3H44 Fab heavy chain S186R, ABD2-His6 tagged; experiment: as above
[3] = target: D3H44 Fab heavy chain Q179K, ABD2-His6 tagged; experiment: as above
[4] = target: D3H44 Fab heavy chain L143E_K145T_Q179E, ABD2-His6 tagged; experiment: as above
[5] = target: D3H44 Fab heavy chain S186K, ABD2-His6 tagged; experiment: as above
[6] = target: D3H44 Fab heavy chain Q179R, ABD2-His6 tagged; experiment: LCCA, SPR of light chain tags; L1:L2 DNA 1:3 normalized to 1:1; competing light chain m16
[7] = target: D3H44 Fab heavy chain S186R, ABD2-His6 tagged; experiment: as above
[8] = target: D3H44 Fab heavy chain Q179K, ABD2-His6 tagged; experiment: as above
[9] = target: D3H44 Fab heavy chain L143E_K145T_Q179E, ABD2-His6 tagged; experiment: as above
[10] = target: D3H44 Fab heavy chain S186K, ABD2-His6 tagged; experiment: as above
[11] = target: D3H44 Fab heavy chain S186R, ABD2-His6 tagged; experiment: LCCA, SPR of light chain tags; L1:L2 DNA 1:3 normalized to 1:1; competing light chain m18
[12] = target: D3H44 Fab heavy chain S186K, ABD2-His6 tagged; experiment: as above
[13] = target: D3H44 Fab heavy chain L143E_K145T_Q179D, ABD2-His6 tagged; experiment: as above
[14] = target: D3H44 Fab heavy chain S186K, ABD2-His6 tagged; experiment: LCCA, SPR of light chain tags; L1:L2 DNA 1:9 normalized to 1:1; competing light chain m18
[15] = target: D3H44 Fab heavy chain L143E_K145T_Q179D, ABD2-His6 tagged; experiment: as above
[16] = target: D3H44 Fab heavy chain S186R, ABD2-His6 tagged; experiment: LCCA, SPR of light chain tags; L1:L2 DNA 1:3 normalized to 1:1; competing light chain m23
[17] = target: D3H44 Fab heavy chain L143E_K145T_Q179E, ABD2-His6 tagged; experiment: as above
[18] = target: D3H44 Fab heavy chain S186K, ABD2-His6 tagged; experiment: as above
[19] = target: D3H44 Fab heavy chain L143E_K145T_Q179D, ABD2-His6 tagged; experiment: as above
[20] = target: D3H44 Fab heavy chain L143R, ABD2-His6 tagged; experiment: LCCA, SPR of light chain tags; L1:L2 DNA 1:9 normalized to 1:1; competing light chain m16
[21] = target: D3H44 Fab heavy chain L143R, ABD2-His6 tagged; experiment: LCCA, SPR of light chain tags; L1:L2 DNA 1:3 normalized to 1:1; competing light chain m16
[22] = target: D3H44 Fab heavy chain L143E_K145T_Q179E, ABD2-His6 tagged; experiment: LCCA, SPR of light chain tags; L1:L2 DNA 1:9 normalized to 1:1; competing light chain m24
[23] = target: D3H44 Fab heavy chain S186K, ABD2-His6 tagged; experiment: as above
[24] = target: D3H44 Fab heavy chain Q179R, ABD2-His6 tagged; experiment: LCCA, SPR of light chain tags; L1:L2 DNA 1:3 normalized to 1:1; competing light chain m21
[25] = target: D3H44 Fab heavy chain L143E_K145T_Q179E, ABD2-His6 tagged; experiment: as above
[26] = target: D3H44 Fab heavy chain S186K, ABD2-His6 tagged; experiment: as above
[27] = target: D3H44 Fab heavy chain Q179R, ABD2-His6 tagged; experiment: LCCA, SPR of light chain tags; L1:L2 DNA 1:3 normalized to 1:1; competing light chain m17
[28] = target: D3H44 Fab heavy chain S186R, ABD2-His6 tagged; experiment: as above
[29] = target: D3H44 Fab heavy chain Q179K, ABD2-His6 tagged; experiment: as above
[30] = target: D3H44 Fab heavy chain L143E_K145T_Q179E, ABD2-His6 tagged; experiment: as above
[31] = target: D3H44 Fab heavy chain S186K, ABD2-His6 tagged; experiment: as above
[32] = target: D3H44 Fab heavy chain Q179R, ABD2-His6 tagged; experiment: LCCA, SPR of light chain tags; L1:L2 DNA 1:9 normalized to 1:1; competing light chain m17
[33] = target: D3H44 Fab heavy chain S186R, ABD2-His6 tagged; experiment: as above
[34] = target: D3H44 Fab heavy chain Q179K, ABD2-His6 tagged; experiment: as above
[35] = target: D3H44 Fab heavy chain L143E_K145T_Q179E, ABD2-His6 tagged; experiment: as above
[36] = target: D3H44 Fab heavy chain S186K, ABD2-His6 tagged; experiment: as above
[37] = target: D3H44 Fab heavy chain L143E_K145T_Q179E, ABD2-His6 tagged; experiment: LCCA, SPR of light chain tags; L1:L2 DNA 1:9 normalized to 1:1; competing light chain m20
[38] = target: D3H44 Fab heavy chain L143R, ABD2-His6 tagged; experiment: as above
[39] = target: D3H44 Fab heavy chain Q179K, ABD2-His6 tagged; experiment: LCCA, SPR of light chain tags; L1:L2 DNA 1:9 normalized to 1:1; competing light chain m22
[40] = target: D3H44 Fab heavy chain L143E_K145T_Q179E, ABD2-His6 tagged; experiment: as above
[41] = target: D3H44 Fab heavy chain L143E_K145T_Q179E, ABD2-His6 tagged; experiment: LCCA, SPR of light chain tags; L1:L2 DNA 1:3 normalized to 1:1; competing light chain m20
[42] = target: D3H44 Fab heavy chain L143R, ABD2-His6 tagged; experiment: as above
[43] = target: D3H44 Fab heavy chain Q179R, ABD2-His6 tagged; experiment: LCCA, SPR of light chain tags; L1:L2 DNA 1:9 normalized to 1:1; competing light chain m21
[44] = target: D3H44 Fab heavy chain L143E_K145T_Q179E, ABD2-His6 tagged; experiment: as above
[45] = target: D3H44 Fab heavy chain S186K, ABD2-His6 tagged; experiment: as above
[46] = target: D3H44 Fab heavy chain S186R, ABD2-His6 tagged; experiment: LCCA, SPR of light chain tags; L1:L2 DNA 1:3 normalized to 1:1; competing light chain m19
[47] = target: D3H44 Fab heavy chain L143E_K145T_Q179E, ABD2-His6 tagged; experiment: as above
[48] = target: D3H44 Fab heavy chain L143E_K145T_Q179E, ABD2-His6 tagged; experiment: LCCA, SPR of light chain tags; L1:L2 DNA 1:3 normalized to 1:1; competing light chain m24
[49] = target: D3H44 Fab heavy chain S186K, ABD2-His6 tagged; experiment: as above
[50] = target: D3H44 Fab heavy chain Q179R, ABD2-His6 tagged; experiment: LCCA, SPR of light chain tags; L1:L2 DNA 1:3 normalized to 1:1; competing light chain m22
[51] = target: D3H44 Fab heavy chain Q179K, ABD2-His6 tagged; experiment: as above
[52] = target: D3H44 Fab heavy chain L143E_K145T_Q179E, ABD2-His6 tagged; experiment: as above

H2L2:H2L1 normalized median ratio [1]: 86% | H2L2:H2L1 normalized median ratio [2]: 87% | H2L2:H2L1 normalized median ratio [3]: 84% | H1L1:H1L2 normalized median ratio [4]: 10% | H2L2:H2L1 normalized median ratio [5]: 90% | H2L2:H2L1 normalized median ratio [6]: 95% | H2L2:H2L1 normalized median ratio [7]: 94% | H2L2:H2L1 normalized median ratio [8]: 95% | H1L1:H1L2 normalized median ratio [9]: 9% | H2L2:H2L1 normalized median ratio [10]: 98%
Substance: D3H44 light chain Q124E_Q160E_T178E, HA or FLAG tagged

H2L2:H2L1 normalized median ratio [11]: 97% | H2L2:H2L1 normalized median ratio [12]: 98% | H1L1:H1L2 normalized median ratio [13]: 15% | H2L2:H2L1 normalized median ratio [14]: 95% | H1L1:H1L2 normalized median ratio [15]: 11% | H2L2:H2L1 normalized median ratio [16]: 97% | H1L1:H1L2 normalized median ratio [17]: 16% | H2L2:H2L1 normalized median ratio [18]: 97% | H1L1:H1L2 normalized median ratio [19]: 16% | H2L2:H2L1 normalized median ratio [7]: 96% | H1L1:H1L2 normalized median ratio [9]: 15%
Substance: D3H44 light chain Q124E_T180E, HA or FLAG tagged

H1L1:H1L2 normalized median ratio [4]: 8% | H2L2:H2L1 normalized median ratio [20]: 89% | H1L1:H1L2 normalized median ratio [9]: 7% | H2L2:H2L1 normalized median ratio [21]: 95%
Substance: D3H44 light chain Q124E_V133E, HA or FLAG tagged

H1L1:H1L2 normalized median ratio [22]: 78% | H1L1:H1L2 normalized median scalar value ln(r1/f1) [22]: 1.29 | H2L2:H2L1 normalized median ratio [23]: 6% | H2L2:H2L1 normalized median ratio [24]: 6% | H1L1:H1L2 normalized median ratio [25]: 92% | H1L1:H1L2 normalized median scalar value ln(r1/f1) [25]: 2.46 | H2L2:H2L1 normalized median ratio [26]: 5% | H2L2:H2L1 normalized median ratio [27]: 5% | H2L2:H2L1 normalized median ratio [28]: 6% | H2L2:H2L1 normalized median ratio [29]: 5% | H1L1:H1L2 normalized median ratio [30]: 91% | H1L1:H1L2 normalized median scalar value ln(r1/f1) [30]: 2.29 | H2L2:H2L1 normalized median ratio [31]: 2% | H2L2:H2L1 normalized median ratio [32]: 14% | H2L2:H2L1 normalized median ratio [33]: 13% | H2L2:H2L1 normalized median ratio [34]: 16% | H1L1:H1L2 normalized median ratio [35]: 90% | H1L1:H1L2 normalized median scalar value ln(r1/f1) [35]: 2.18 | H2L2:H2L1 normalized median ratio [36]: 10% | H1L1:H1L2 normalized median ratio [37]: 92% | H1L1:H1L2 normalized median scalar value ln(r1/f1) [37]: 2.45 | H2L2:H2L1 normalized median ratio [38]: 11% | H2L2:H2L1 normalized median ratio [39]: 11% | H1L1:H1L2 normalized median ratio [40]: 85% | H1L1:H1L2 normalized median scalar value ln(r1/f1) [40]: 1.77 | H1L1:H1L2 normalized median ratio [41]: 93% | H1L1:H1L2 normalized median scalar value ln(r1/f1) [41]: 2.62 | H2L2:H2L1 normalized median ratio [42]: 5% | H2L2:H2L1 normalized median ratio [43]: 10% | H1L1:H1L2 normalized median ratio [44]: 92% | H1L1:H1L2 normalized median scalar value ln(r1/f1) [44]: 2.45 | H2L2:H2L1 normalized median ratio [45]: 11% | H2L2:H2L1 normalized median ratio [46]: 4% | H1L1:H1L2 normalized median ratio [47]: 85% | H1L1:H1L2 normalized median scalar value ln(r1/f1) [47]: 1.75 | H1L1:H1L2 normalized median ratio [48]: 91% | H1L1:H1L2 normalized median scalar value ln(r1/f1) [48]: 2.27 | H2L2:H2L1 normalized median ratio [49]: 6% | H2L2:H2L1 normalized median ratio [50]: 3% | H2L2:H2L1 normalized median ratio [51]: 4% | H1L1:H1L2 normalized median ratio [52]: 86% | H1L1:H1L2 normalized median scalar value ln(r1/f1) [52]: 1.83
Substance: D3H44 light chain Q124R_T178R, HA or FLAG tagged

— patent US11306156
